According to patent US12697350B2, “Methods and compositions for treating a premature termination codon-mediated disorder” (Tevard Biosciences, Inc., priority 2019, dated 2026):

Test system: EGFP-R96X-TGA reporter
Test: PTC readthrough of ArgTCA suppressor tRNA versus nonsense suppression drugs, EGFP-R96X-TGA reporter, Neuro-2a cells (FIGS. 21-22)
Assay type: cell-based, mouse
Conditions: versus ataluren, gentamicin, G418
Protocol: FIG. 21 depicts fluorescent images of Neuro-2a cells ~24 hours after transfection with an expression construct containing an EGFP-R96X-TGA reporter (“GFP-PTC”) and either (i) including the ArgTCA suppressor tRNA #115 (SEQ ID NO: 18) at the indicated copy number on the same construct, or (ii) treated with ataluren at the indicated concentration, (iii) treated with gentamicin at the indication concentration, or (iv) treated with G418 at the indicated concentration. For all experimental conditions, cell culture medium was replaced with fresh medium ~6 hours after transfection and the indicated drugs at the indicated concentrations were added at this point. […]
FIG. 22 is a graph depicting percentage of GFP positive cells as measured by flow cytometry at ~48 hours post transfection. […]
Disclosed suppressor tRNAs were tested alongside nonsense suppression drugs translarna (ataluren), gentamicin, and G418 (geneticin). PTC readthrough activity was measured in Neuro-2a cells ~48 hours after transfection with an expression construct containing a CAG:NLS-EGFP (R96X-TGA) reporter (as described in Example 1) and either (i) including an ArgTCA suppressor tRNA at the indicated copy number on the same construct, or (ii) treated with ataluren, (iii) treated with gentamicin, or (iv) treated with G418. […] PTC readthrough activity was measured as the percentage of EGFP positive cells. […]

B1: tRNA-Arg-TCT-2-1-TCA-SUP_no intron (nucleic acid)
chain: GGCTCCGTGGCGCAATGGATAGCGCATTGGACTTCAAATTCAAAGGTTCCGGGTTCGAGTCCCGGCGGAGTCG
modifications: chemistry not fully specified
PTC readthrough compared with nonsense suppression drugs: far greater readthrough than any of the nonsense suppression drugs
